US5969101

Columns and labels:
[1] = biological target: c-Abl wild type, full length

Substance	No. of Agar Colonies (per 10^4 cells) (agar colonies per 10^4 cells) (c-Abl K290R)	No. of Agar Colonies (per 10^4 cells) (agar colonies per 10^4 cells) [1]	relative transforming activity, colonies in soft agar of Rat1/P185 BCR-Abl cells (P185 BCR-Abl)
HA-tagged Abi-2Δ1-157 (pCGN/abi-2Δ1-157)	3	563	
HA-tagged Abi-2Δ1-100 (pCGN/abi-2Δ1-100)			70%
